According to US20100196390A1 (RINAT NEUROSCIENCE, published 2010):
Positions count from the first letter of the chain named.

B1: 16-B2 (Fab, V domains shown)
VH: QVQLVQSGAEVKKPGASVKVSCKASGYTFTNYDIIWVRQAPGQGLEWMGYINPYNDGTKYNEKFKGRVTMTRDTSTSTVYMELSSLRSEDTAVYYCARLLKYRRFRYYAIDYWGQGTTVTVSS
VL: DIQMTQSPSSLSASVGDRVTITCRASENVYSNLAWYQQKPGKAPKLLIYAASNLQSGVPSRFSGSGSGTDFTFTISSLQPEDIATYYCQHFWGSPFTFGQGTKLEIK
notes: Fab
B2: 3-F10 (Fab, V domains shown)
VH: B1 VH with D33V, I35L, R106S
VL: B1 VL with G93Y, T97K
notes: Fab
B3: 4B12-21 (Fab, V domains shown)
VH: B1 VH with D56G, G57R, T58R, K59E, K101A
VL: B1 VL with N28P, L33V, F71Y
notes: Fab
B4: 3-B11 (Fab, V domains shown)
VH: B1 VH with D33V, I35L
VL: B1 VL with G93Y, P95G
notes: Fab
B5: 4B12-3 (Fab, V domains shown)
VH: B1 VH with N55V, D56G, G57R, T58R, K59E
VL: B1 VL with N28P, L33V, F71Y
notes: Fab
B6: 2-A2 (Fab, V domains shown)
VH: B1 VH with D33V, I35L, F105L, R106S
VL: B1 VL with G93Y
notes: Fab
B7: 3-F7 (Fab, V domains shown)
VH: B1 VH with D33V, I35L
VL: B1 VL with G93K
notes: Fab
B8: 3-G5 (Fab, V domains shown)
VH: B1 VH with D33V, I35L, R106S
VL: B1 VL with H90N, G93Y
notes: Fab
B9: 1-B10 (Fab, V domains shown)
VH: B1 VH with D33V, I35L, R106S, Y107F
VL: B1 VL with H90G, G93Y
notes: Fab
B10: 4B12-22 (Fab, V domains shown)
VH: B1 VH with D56G, G57R, T58R, K59E, R103A
VL: B1 VL with N28P, L33V, F71Y
notes: Fab
B11: 3-H8 (Fab, V domains shown)
VH: B1 VH with D33V, I35L
VL: B1 VL with G93Y, T97V
notes: Fab
B12: 4-F10 (Fab, V domains shown)
VH: B1 VH with D33V, I35L, R106S
VL: B1 VL with H90Q, G93Y
notes: Fab
B13: 1-A11 (Fab, V domains shown)
VH: B1 VH with D33V, I35L, R106S
VL: B1 VL with G93Y
notes: Fab
B14: 1-B11 (Fab, V domains shown)
VH: B1 VH with D33V, I35L, R106S
VL: B1 VL with H90N, G93Y
notes: Fab
B15: 3-G7 (Fab, V domains shown)
VH: B1 VH with D33V, I35L, R106S, I110E
VL: B1 VL with H90N, G93Y
notes: Fab
B16: 4B12-4 (Fab, V domains shown)
VH: B1 VH with D56A, G57R, T58R, K59E
VL: B1 VL with N28P, L33V, F71Y
notes: Fab
B17: 4A6-12 (Fab, V domains shown)
VH: B1 VH with D56R, G57R, T58R
VL: B1 VL with R24H, F71Y
notes: Fab
B18: 3-F11 (Fab, V domains shown)
VH: B1 VH with D33V, I35L
VL: B1 VL with G93Y
notes: Fab
B19: 1-D3 (Fab, V domains shown)
VH: B1 VH with D33V, I35L, R106S, Y112E
VL: B1 VL with G93Y
notes: Fab
B20: 1-G12 (Fab, V domains shown)
VH: B1 VH with D33V, I35L, R106S
VL: B1 VL with G93Y, T97G
notes: Fab
B21: 4B12-18 (Fab, V domains shown)
VH: B1 VH with N55A, D56G, G57R, T58R, K59E
VL: B1 VL with N28P, L33V, F71Y
notes: Fab
B22: 4B12-17 (Fab, V domains shown)
VH: B1 VH with Y54A, D56G, G57R, T58R, K59E
VL: B1 VL with N28P, L33V, F71Y
notes: Fab
B23: 4B12-20 (Fab, V domains shown)
VH: B1 VH with D56G, G57R, T58R, K59E, N61A
VL: B1 VL with N28P, L33V, F71Y
notes: Fab
B24: 4-A1 (Fab, V domains shown)
VH: B1 VH with D33V, I35L, R106S
VL: B1 VL with W92Y, G93Y
notes: Fab
B25: 4B12-5 (Fab, V domains shown)
VH: B1 VH with G57R, T58R, K59E
VL: B1 VL with N28P, L33V, F71Y
notes: Fab
B26: 4B12-6 (Fab, V domains shown)
VH: B1 VH with D56G, T58R, K59E
VL: B1 VL with N28P, L33V, F71Y
notes: Fab
B27: 3-C12 (Fab, V domains shown)
VH: B1 VH with D33V, I35L, R106S
VL: B1 VL
notes: Fab
B28: 2-F10 (Fab, V domains shown)
VH: B1 VH with D33V, I35L, R106S
VL: B1 VL with H90V, G93Y
notes: Fab
B29: 4-E1 (Fab, V domains shown)
VH: B1 VH with D33V, I35L, R104A, R106S
VL: B1 VL
notes: Fab
B30: 4B12-8 (Fab, V domains shown)
VH: B1 VH with D56G, G57R, T58R
VL: B1 VL with N28P, L33V, F71Y
notes: Fab
B31: 1-A6 (Fab, V domains shown)
VH: B1 VH with D33V, I35L, F105H, R106S
VL: B1 VL with G93K
notes: Fab
B32: 4B12-14 (Fab, V domains shown)
VH: B1 VH with N52S, D56G, G57R, T58R, K59E
VL: B1 VL with N28P, L33V, F71Y
notes: Fab
B33: 3-F2 (Fab, V domains shown)
VH: B1 VH with D33V, I35L, R106S
VL: B1 VL with G93Y, T97I
notes: Fab
B34: 2-F6 (Fab, V domains shown)
VH: B1 VH with D33V, I35L
VL: B1 VL with G93Y
notes: Fab
B35: 4-C7 (Fab, V domains shown)
VH: B1 VH with D33V, I35L, R106S
VL: B1 VL
notes: Fab
B36: 4B12-15 (Fab, V domains shown)
VH: B1 VH with N52A, D56G, G57R, T58R, K59E
VL: B1 VL with N28P, L33V, F71Y
notes: Fab
B37: 4B12-7 (Fab, V domains shown)
VH: B1 VH with D56G, G57R, K59E
VL: B1 VL with N28P, L33V, F71Y
notes: Fab
B38: 2-G12 (Fab, V domains shown)
VH: B1 VH with D33V, I35L
VL: B1 VL with G93Y, S94R
notes: Fab
B39: 4-D4 (Fab, V domains shown)
VH: B1 VH with D33V, I35L
VL: B1 VL with G93Y
notes: Fab
B40: 1-H6 (Fab, V domains shown)
VH: B1 VH with D33V, I35L, R106S
VL: B1 VL with G93W
notes: Fab
B41: 1-E9 (Fab, V domains shown)
VH: B1 VH with D33V, I35L, F105M, R106S
VL: B1 VL with G93Y
notes: Fab
B42: 4B12-13 (Fab, V domains shown)
VH: B1 VH with D56G, G57R, T58R, K59E, E62A
VL: B1 VL with N28P, L33V, F71Y
notes: Fab
B43: 4-B2 (Fab, V domains shown)
VH: B1 VH with D33V, I35L
VL: B1 VL
notes: Fab
B44: 4B12-2 (Fab, V domains shown)
VH: B1 VH with N55Q, D56G, G57R, T58R, K59E
VL: B1 VL with N28P, L33V, F71Y
notes: Fab
B45: 4B12-19 (Fab, V domains shown)
VH: B1 VH with D56G, G57R, T58R, K59E, Y60A
VL: B1 VL with N28P, L33V, F71Y
notes: Fab
B46: 2-B1 (Fab, V domains shown)
VH: B1 VH with D33V, I35L, R106S
VL: B1 VL with H90N, G93Y
notes: Fab
B47: 4B12-16 (Fab, V domains shown)
VH: B1 VH with P53A, D56G, G57R, T58R, K59E
VL: B1 VL with N28P, L33V, F71Y
notes: Fab

The binders below were run against TrkB (Homo sapiens (Human), UniProt Q16620 32-430) (assay: koff of Fab at 25 C; T1/2=Log2/koff).
Chain of TrkB (Q16620 32-430 limits assumed): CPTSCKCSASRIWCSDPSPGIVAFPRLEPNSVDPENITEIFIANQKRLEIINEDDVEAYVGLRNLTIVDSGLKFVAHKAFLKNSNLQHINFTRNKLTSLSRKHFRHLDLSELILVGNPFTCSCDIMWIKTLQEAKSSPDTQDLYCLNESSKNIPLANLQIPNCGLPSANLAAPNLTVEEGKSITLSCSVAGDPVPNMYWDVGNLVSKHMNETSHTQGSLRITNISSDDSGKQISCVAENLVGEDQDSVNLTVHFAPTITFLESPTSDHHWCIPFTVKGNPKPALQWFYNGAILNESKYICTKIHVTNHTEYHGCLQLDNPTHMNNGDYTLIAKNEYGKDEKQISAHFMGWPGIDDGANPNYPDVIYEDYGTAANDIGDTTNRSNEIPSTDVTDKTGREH
In short: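 Monovalent Fab fragments were tested at 25° C by surface plasmon resonance on a Biacore instrument, against TrkB extracellular-domain monomer amine-coupled to the chip at low capacity. Fabs were injected low to high as a 3-fold serial dilution from 100 nM for 84 sec, with a 10 minute dissociation after the top sample. The dissociation half-life was calculated from koff, which was fitted to a Langmuir binding model in BIAevaluation. The formula used was T1/2 = Log 2/koff.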
B1 gave a T1/2 of 5 min. For B2, the T1/2 was 0.79 min. For B3, the T1/2 was 0.3 min. Binder B4 has a T1/2 of 0.87 min. B5 gave a T1/2 of 6.6 min. With B6 the T1/2 was 0.57 min. B7 gave a T1/2 of 1.01 min. B8 showed a T1/2 of 1.21 min. B9 gave a T1/2 of 0.55 min. Binder B10 has a T1/2 of 3.5 min. B11 showed a T1/2 of 0.81 min. In the case of B12, the T1/2 is reported as 1.03 min. For B13, the T1/2 was 1.08 min. In the case of B14, the T1/2 is reported as 0.72 min. In the case of B15, the T1/2 is reported as 0.92 min. B16 gave a T1/2 of 11.4 min. B17 showed a T1/2 of 74.2 min. Work on B18 yielded a T1/2 of 1.16 min. For B19, the T1/2 was 0.92 min. Work on B20 yielded a T1/2 of 0.4 min. Binder B21 has a T1/2 of 3.8 min. B22 was tested, and the T1/2 was 1 min. B23 showed a T1/2 of 12.2 min. For B24, the T1/2 was 0.93 min. Binder B25 has a T1/2 of 16.1 min. In the case of B26, the T1/2 is reported as 3.7 min. With B27 the T1/2 was 0.84 min. B28 gave a T1/2 of 0.48 min. B29 was tested, and the T1/2 was 0.71 min. B30 gave a T1/2 of 13.8 min. Work on B31 yielded a T1/2 of 0.42 min. B32 gave a T1/2 of 3.2 min. B33 showed a T1/2 of 1.38 min. With B34 the T1/2 was 0.23 min. For B35, the T1/2 was 1.4 min. With B36 the T1/2 was 2.7 min. B37 was tested, and the T1/2 was 7.6 min. B38 gave a T1/2 of 0.3 min. Binder B39 has a T1/2 of 1.24 min. B40 gave a T1/2 of 0.62 min. For B41, the T1/2 was 1.04 min. B42 showed a T1/2 of 13.7 min. B43 was tested, and the T1/2 was 1.33 min. B44 showed a T1/2 of 5.8 min. B45 gave a T1/2 of 13.1 min. Binder B46 has a T1/2 of 0.32 min. With B47 the T1/2 was 5.6 min.
